According to article PMC6049852, “Comprehensive investigation of a dye-decolorizing peroxidase and a manganese peroxidase from Irpex lacteus F17, a lignin-degrading basidiomycete” (AMB Express, 2018):

Legend:
Assay in all cases: purified protein
[1] = substrate: COc1cccc(OC)c1O; assay type: biochemical, Irpex lacteus; details: error = 95% confidence limits
[2] = substrate: Nc1c(N=Nc2ccc(S(=O)(=O)CCOS(=O)(=O)O)cc2)c(S(=O)(=O)O)cc2cc(S(=O)(=O)O)c(N=Nc3ccc(S(=O)(=O)CCOS(=O)(=O)O)cc3)c(O)c12; assay type: biochemical, Irpex lacteus; details: error = 95% confidence limits
[3] = substrate: COc1ccc(CO)cc1OC; assay type: biochemical, Irpex lacteus; details: 0.1 mM H2O2, 0.1 M sodium tartrate, pH 3.5, 45 °C, error = 95% confidence limits
[4] = substrate: Nc1c(S(=O)(=O)O)cc(Nc2cccc(S(=O)(=O)CCOS(=O)(=O)O)c2)c2c1C(=O)c1ccccc1C2=O; assay type: biochemical, Irpex lacteus; details: error = 95% confidence limits
[5] = substrate: CCn1c(=NN=c2sc3cc(S(=O)(=O)O)ccc3n2CC)sc2cc(S(=O)(=O)O)ccc21; assay type: biochemical, Irpex lacteus; details: error = 95% confidence limits
[6] = substrate: COc1ccccc1O; details: pH 4, 45 °C, error = 95% confidence limits
[7] = 0.1 mM H2O2, 0.1 M sodium tartrate, pH 4, 35 °C
[8] = 0.1 mM H2O2, 0.1 M sodium tartrate, pH 4.5, 35 °C
[9] = 0.1 mM H2O2, 0.1 M sodium tartrate, pH 3.5, 35 °C
[10] = 0.1 mM H2O2, 0.1 M sodium tartrate
[11] = 0.1 mM H2O2, 1 mM Mn2+, 0.1 M sodium tartrate, pH 4.5, 55 °C
[12] = 0.1 mM H2O2, 1 mM Mn2+, 0.1 M sodium tartrate, pH 3, 35 °C
[13] = 0.1 mM H2O2, 1 mM Mn2+, 0.1 M sodium tartrate, pH 3.5, 45 °C
[14] = 0.1 mM H2O2, 1 mM Mn2+, 0.1 M sodium tartrate

B1: Il-DyP4 (Irpex lacteus) (protein)
chain: SAGNDSLPFENIQGDILVGMKKDKEKFVFFHINNATAFKSVLKTYAPANITSVATIIGPVANQPLAFVNLAFSHAGFGALNVTDDLQDTAFSDGQFKDSPNLGDDTSTWEEAFKGTNVDGVFLIGSNDESITAQYRDDLNAKFGDAWTIVYDLDSAARPGNEKGHEHFGYLDGISNPTIPGFGTPHPGQAVVDPGIIFTGRSKDPVMNRPSWALDGSFLVFRKLKQLVPEFNKYVLDNALQNQAGNLTVEEGAELLGSRMFGRWKSGAPIDLSPDFDDPALGNDIERNNNFNYSHPGSDLATDQTRCPFTAHIRKTNPRDLEGQGLFGDTFHAIRAGTPYGPEVTDYEASSNTTTIDRGLAFVEYQSVIGNGFRFQQQAWANNPRFPFSKGPSIQLGLDPVIGQGSPRETFGLDPRNASESFTVPQVIISNGGEYFFSPSITAIVEKFAA
notes: 502 aa given, 52-aa signal peptide stated
- Km [1, 7]: 58 ± 3 µM
- kcat [1, 7]: 4896 ± 131 s⁻¹
- kcat/Km [1, 7]: (8.4 ± 0.2) × 10^7 s^-1M^-1
- Km [2, 7]: 159 ± 61 µM
- kcat [2, 7]: 267 ± 96 s⁻¹
- kcat/Km [2, 7]: (1.7 ± 0.6) × 10^6 s^-1M^-1
- Km [3]: (2.1 ± 0.98) × 10^4 μM
- kcat [3]: 108 ± 47 s⁻¹
- kcat/Km [3]: (5.2 ± 2.3) × 10^3 s^-1M^-1
- Km [4, 8]: 133 ± 34 µM
- kcat [4, 8]: 5345 ± 921 s⁻¹
- kcat/Km [4, 8]: (4.0 ± 0.7) × 10^7 s^-1M^-1
- Km [5, 9]: 62 ± 11 µM
- kcat [5, 9]: 8356 ± 747 s⁻¹
- kcat/Km [5, 9]: (1.3 ± 0.1) × 10^8 s^-1M^-1
- Km [6, 10]: 24 ± 7.5 µM
- kcat [6, 10]: 413 ± 34 s⁻¹
- kcat/Km [6, 10]: (1.7 ± 0.1) × 10^7 s^-1M^-1

B2: Il-MnP6 (Irpex lacteus) (protein)
chain: TKRVACPDGKNTATNAACCALFAIRDDIQENLFDGGQCGEEVHESFRLTFHDAIGIGSNGGGGADGSIAVFEAIETAFHANNGVDEIIDEQKPFIARHNITPGDFIQFAGAVGVSNCPGAPRLDFFLGRPNPVAPAPDKTVPEPFDSVTSILARFKDAGNFSPEEVVALLGSHTIAAADHVDPTIPGTPFDSTPEVFDTQVFLEVQLRGTLFPGTAGNQGEVQSPLRGEIRLQSDHDLARDQRTACEWQSFVNNQAKLQRNFKAAFKKLSILGHDERRLIDCSEVIPEPPNVKVKPATFPAGLSNKDVEQACRATPFPTLPTDPGPSTSVAPVPPS
notes: 359 aa printed, predicted 23-aa signal peptide; short-type MnP
- Km [1, 11]: 53 ± 8.6 µM
- kcat [1, 11]: 989 ± 100 s⁻¹
- kcat/Km [1, 11]: (1.9 ± 0.2) × 10^7 s^-1M^-1
- Km [2, 12]: 4.4 ± 0.7 µM
- kcat [2, 12]: 0.06 ± 0.003 s⁻¹
- kcat/Km [2, 12]: (1.5 ± 0.07) × 10^4 s^-1M^-1
- Km [4, 12]: 81 ± 39.5 µM
- kcat [4, 12]: 7.3 ± 2.6 s⁻¹
- kcat/Km [4, 12]: (9.0 ± 3.2) × 10^4 s^-1M^-1
- Km [5, 13]: 83 ± 6.5 µM
- kcat [5, 13]: 245 ± 7 s⁻¹
- kcat/Km [5, 13]: (3.0 ± 0.09) × 10^6 s^-1M^-1
- Km [6, 14]: 2.6 ± 0.6 µM
- kcat [6, 14]: 184 ± 7 s⁻¹
- kcat/Km [6, 14]: (7.1 ± 0.3) × 10^7 s^-1M^-1
